# Patent US7888090B2, “Mutants of O6-alkylguanine-DNA alkyltransferase” (Ecole Polytechnique Federale de Lausanne, priority 2004, dated 2011)
# B1: AGTM: AGT mutant Cys62Ala, Gln115Ser, Gln116His, Lys125Ala, Ala127Thr, Arg128Ala, Gly131Lys, Gly132Thr, Met134Leu, Arg135Ser, Cys150Asn, Ser151Ile, Ser152Asn, Asn157Gly, Ser159Glu, truncated after … (protein, UniProt P16455 1-207, looked up, variant C62A Q115S Q116H K125A A127T R128A G131K G132T M134L R135S C150N S151I S152N N157G S159E del183-207)
# Methylated-DNA--protein-cystei …: MDKDCEMKRTTLDSPLGKLELSGCEQGLHEIKLLGKGTSAADAVEVPAPAAVLGGPEPLMQATAWLNAYFHQPEAIEEFPVPALHHPVFQQESFTRQVLWKLLKVVKFGEVISYSHLAALAGNPAATAAVKTALSGNPVPILIPCHRVVNINGAVGGYEGGLAVKEWLLAHEGHRLGKPGLG
# modifications: His tag
# Key:
# [1] = Reaction of two AGT variants in one sample with CPTG and BG-Bt; assay type: biochemical; conditions: CPTG and BG-Bt both at 5 μM, 30 minutes
# Procedure: FIG. 2: Western blot of the reaction of wild type hAGT (GST-hAGT fusion protein) and AGTM with the two substrates N^9-cyclopentyl-O^6-bromophenyl-guanine (CPTG) and biotinylated O^6-benzylguanine (BG-Bt, substance 3a of Juillerat et al. 2003) as described in Example 7. BG-Bt is present in all samples at 5 μM. Detection with neutravidin-peroxidase conjugate and luminescent peroxidase substrate detecting any AGT reacted with BG-Bt. Even under simultaneous incubation with identical concentrations of CPTG and BG-Bt only about 5% of GST-hAGT reacts with substrate BG-Bt.
# Within the experiment two tags with different size for the two AGT proteins are used: The His-tagged AGTM (˜20 kDa) and GST-hAGT (cloned and prepared as described in Example 1, but starting with the wild type hAGT gene, ˜48 kDa) are diluted to 0.2 μM and 1.2 μM final concentration, respectively, in reaction buffer containing 50 mM HEPES, 1 mM DTT, 200 mg/mL BSA (pH 7.3). The sample is incubated with a mixture of substrates N^9-cyclopentyl-O^6-bromophenyl-guanine (CPTG; 0, 5 and 10 μM final concentrations) and biotinylated O^6-benzylguanine (BG-Bt, 5 μM final concentration) for 30 minutes. The reaction is quenched by addition of SDS-Laemmli buffer and subjected to Western blotting analysis (Example 1). As the two AGT variants have different masses, the two proteins can be separated on an acrylamide gel and analyzed independently. […] At the same concentration (both substrates at 5 μM final concentration), 95% of GST-hAGT reacts with CPTG, versus only 5% of His-tagged AGTM.
# [2] = tested on: oligonucleotide SEQ ID NO:2 (modified in position 14); test: Reactivity against DNA-based substrates (BG-Cy3 assay with BG-modified oligonucleotide); assay type: biochemical
# Procedure: The ability of wild type AGT or mutant AGT to react with alkylated DNA substrates is measured as the reaction of its inactivation by a synthetic oligonucleotide containing O^6-benzylguanine (SEQ ID NO:2, modified in position 14). Subsequently, the reactions are quenched by incubation with biotinylated O^6-alkylguanine. Samples are subjected to Western blotting and detection with streptavidin derivates to obtain kinetic constants for these substrates. Alternatively, the ability of wild type or mutant AGT to react with alkylated DNA substrates is measured via its labeling efficiency in competition with a fluorescent substrate of AGT. The reaction kinetics of AGT with BG-Cy3 (O^6-benzylguanine coupled to Cy3) is followed by fluorescence intensity measurements at various concentrations of a competing synthetic oligonucleotide containing O^6-benzylguanine (SEQ ID NO:2, modified in position 14).
# (§1) Reactivity against DNA-based substrates measured with a BG-Cy3 assay: BG-Cy3 is prepared by reacting the previously described O^6-(4-aminomethyl-benzyl)guanine (Keppler et al., NatureBiotechnol. 21:86-89, 2003) with the commercially available N-hydroxysuccinimide ester of Cy3, (Cy3-NHS, Amersham). The coupling reaction is performed at ambient temperature in N,N-dimethylformamide in the presence of 1 eq. of triethylamine. The BG-Cy3 conjugate is purified by reversed-phase HPLC on a C18-column by using linear gradients from 0.1% trifluoroacetic acid to acetonitrile. After solvent evaporation BG-Cy3 is dissolved in dimethyl sulfoxide and stored at −20° C. For measuring the reactivity with DNA-based substrates, a reaction mixture containing different concentrations (0 to 5 µM) of oligonucleotide SEQ ID NO:2 (modified in position 14), GST-AGT fusion protein at 0.2 µM and BG-Cy3 at […] in reaction buffer (50 mM HEPES, pH 7.2, 1 mM DTT, 200 mg/ml BSA) is incubated in microtiterplates. Fluorescence of the Cy3 derivative (excitation 519 nm, emission at 572 nm) is measured on a Spectramax Gemini plate reader (Molecular Devices).
# CHO cells = test: Selective labelling in cells after CPTG pre-incubation; assay type: cell-based; conditions: 5 µM CPTG 10 min, then 5 µM fluorescent substance 4 20 min
# Source text: In a further experiment, the mutant AGTM as described in Example 6 is amplified with the primers SEQ ID NO:34 and SEQ ID NO:36 and cloned between the NheI and BgIII sites of the vector pEGFP-Nuc. The […]-galactosidase gene is amplified with the primers SEQ ID NO:37 and SEQ ID NO:38 and subcloned into this vector via BgIII/BamHI to result in a vector with an AGTM-[…]-Gal fusion gene. The hAGT gene is amplified by the principle described under Example 1 with the primers SEQ ID NO:39, SEQ ID NO:40, SEQ ID NO:34, and SEQ ID NO:35 and cloned via NheI/BgIII into pEGFP-Nuc to result in an AGT-NLS3 fusion gene coding for the mutation Gly160Trp. After transient expression of both AGT mutants in parallel, the cells are incubated with 5 µM CPTG for 10 min and subsequently with 5 µM of substance 4 of Juillerat et al., Chem Biol 10:313-317, 2003, for 20 min. The cells are washed and imaged as described under Example 1.
# [3] = BG-Cy3 activity assay (reaction rate of AGT mutants); assay type: biochemical; conditions: divided by value for wild type hAGT; purified GST fusion proteins (p.)
# Procedure: as §1
# The amplified products are cloned in fusion to the g3 gene of filamentous phage in the vector pAK100 via SfiI restriction sites. The resulting gene libraries are used for phage display as described under Example 4. The mutants of the libraries are selected with 5 to 50 nM of BG-Bt for 10 min. Selected mutants are subcloned into pGEX using the primers SEQ ID NO:3 and SEQ ID NO:13. The reaction rate of mutant AGTs is determined as described in Example 6, Reactivity against DNA-based substrates (BG-Cy3 assay).
# For the activity assay purified GST fusion proteins were used for mutants marked with “p.” (prepared as described under Example 1); periplasmic extracts were used for mutants marked with “x.” (prepared as described under Example 2).
# [4] = Solubility in vitro after overnight incubation; assay type: physicochemical; conditions: compared to wild type AGT
# Procedure: The in vitro solubility of wild type AGT and the AGT mutant is measured by determining the amount of protein that remains in the soluble fraction after overnight incubation of purified samples at 4° C. or up to 37° C. at one or several concentrations established in a suitable buffer (e.g. 100 mM NaCl, 20 mM Tris, pH 8.0, 20% glycerol, 1 mM DTT).
# The solubility of AGTM or an AGTM fusion protein in vitro is measured by determining the amount of protein that remains in the soluble fraction after overnight incubation of purified samples at 4 or up to 37° C. at one or several concentrations established in a suitable buffer (e.g. 100 mM NaCl, 20 mM Tris, pH 8.0, 20% Glycerol), and it is compared to that of wild type AGT or to known AGT mutants such as “PGEG-hAGT” (Juillerat et al., Chem Biol 10:313-317, 2003).
molecule,measurement,setting,value
B1,fraction of protein reacting with CPTG,[1],5%
same,reduced reactivity with DNA substrates (factor),[2],≥ 100
same,reaction with BG-Cy3 in presence of BG-modified oligonucleotide,[2]; up to 5 µM BG-modified oligonucleotide,no reduction
same,reaction with CPTG inside cells,CHO cells,does not react with CPTG
same,Relative reaction rate,[3],2.72
same,solubility in vitro,[4],at least fourfold increased
